Experimental data published in PMC10626209.

Assays:
[1] = molecular target: GFP-tagged SHROOM2 ASD2 domain (mouse protein 1,178–1,488 aa) (mouse); experiment: SPR
[2] = molecular target: preformed SHROOM2:ROCK1 complex (mouse | human) (UniProt Q13464); experiment: SPR

Row | Kd [1] | fold higher affinity than for the single domain (printed: ROCK1 alone) [2] | Substance
1 | 1000 nM | – | GST-tagged ROCK1 SBD domain (834–913 aa) (from UniProt Q13464 834-913) (domain or fragment)
2 | 960 nM | 5 fold | GST-tagged SCRIB C-terminal fragment (1,478–1,630) (from UniProt Q14160 1478-1630) (domain or fragment)
